Measurements taken from US20210317201A1.
“And” between values parts separate entries of the source, which are not always exact repeats. Identical values can stand only once. Blank lines part the entries; values can stand above or below the binder they belong to.

Legend:
[1] = molecular target: natural human IL-23 from activated THP-1 cells (human) (UniProt P29460); test: cell-based or functional assay
[2] = molecular target: recombinant human IL-23 (human) (UniProt P29460); test: cell-based or functional assay
[3] = molecular target: Human IL-23 no linker (human) (UniProt P29460); test: SPR, ProteOn XPR36, global 1:1 fit
[4] = molecular target: cynomologous IL-23 (cynomolgus monkey); test: SPR, ProteOn XPR36, global 1:1 fit
[5] = molecular target: Human IL-23 with linker (human) (UniProt P29460); test: SPR, ProteOn XPR36, global 1:1 fit

Chain of recombinant human IL-23 (human) (chain, as listed by the source limits assumed, chain 1 of 2): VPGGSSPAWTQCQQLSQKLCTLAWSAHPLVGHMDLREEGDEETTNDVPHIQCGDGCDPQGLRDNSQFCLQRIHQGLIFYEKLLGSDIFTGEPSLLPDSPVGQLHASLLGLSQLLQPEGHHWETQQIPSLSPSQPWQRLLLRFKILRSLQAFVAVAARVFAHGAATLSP
Chain of recombinant human IL-23 (human) (P29460 23-328 limits assumed, chain 2 of 2): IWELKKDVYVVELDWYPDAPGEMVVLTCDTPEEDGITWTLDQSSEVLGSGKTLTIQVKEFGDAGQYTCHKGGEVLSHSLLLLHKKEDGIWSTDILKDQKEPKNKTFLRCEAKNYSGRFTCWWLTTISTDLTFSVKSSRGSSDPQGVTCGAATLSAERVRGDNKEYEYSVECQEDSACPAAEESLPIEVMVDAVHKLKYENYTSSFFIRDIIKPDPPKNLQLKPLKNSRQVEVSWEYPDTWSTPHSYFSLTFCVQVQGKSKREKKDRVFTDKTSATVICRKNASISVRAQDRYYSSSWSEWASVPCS
Chain of Human IL-23 no linker (human) (chain, as listed by the source limits assumed, chain 1 of 2): as the sequence (chain, as listed by the source limits assumed, chain 1 of 2) above
Chain of Human IL-23 no linker (human) (P29460 23-328 limits assumed, chain 2 of 2): as the sequence (P29460 23-328 limits assumed, chain 2 of 2) above
Chain of natural human IL-23 from activated THP-1 cells (human) (chain, as listed by the source limits assumed, chain 1 of 2): as the sequence (chain, as listed by the source limits assumed, chain 1 of 2) above
Chain of natural human IL-23 from activated THP-1 cells (human) (P29460 23-328 limits assumed, chain 2 of 2): as the sequence (P29460 23-328 limits assumed, chain 2 of 2) above

B2: Antibody 6H12 (disclosed in WO 2007/027714) (antibody, from another filing, V domains shown)
VH: EVHLQQSGPELVKPGASVKMSCKASGYTFNRYLIHWVKQKPGQGLEWIGYINPNNDGTNYNEKFKGKATLTSDKSSSTAYMELSSLTSEDSAVYYCAANWDQAYWGQGTLVTVSA
VL: DIVMTQSPATLSVTPGDRVSLSCRASQSISDYLHWYQQKSHESPRLLIKYTSQSISGIPSRFSGSGSGSDFTLSINSVEPEDVGVYYCQNGHSFPFTFGSGTKLEIKR
Kd [3]: 0.214 nM
koff [3]: 0.000107 s⁻¹
kon [3]: 499000 M⁻¹ s⁻¹
Kd [4]: 0.157 nM
koff [4]: 0.000156 s⁻¹
kon [4]: 991000 M⁻¹ s⁻¹
IC50, IL-23 stimulated IL-17 production from mouse splenocytes [2]: 1.6 nM and 0.806 nM and 1.3 nM

B3: Antibody B (antibody, human IgG1, kappa, L234A L235A, V domains shown)
VH: QVQLVQSGAEVKKPGSSVKVSCKASGFTFTDQTIHWVRQAPGQGLEWMGYIYPRDDSPKYNENFKGKVTLTADKSTSTAYMELSSLRSEDTAVYYCAIPDRSGYAWFIYWGQGTLVTVSS
VL: DIQMTQSPSSLSASVGDRVTITCKASRDVAIAVAWYQQKPGKVPKLLIYWASTRHTGVPSRFSGSGSRTDFTLTISSLQPEDVADYFCHQYSSYPFTFGSGTKLEIKR
Kd [5]: < 0.001 nM
koff [5]: < 1e-06 s⁻¹
kon [5]: 356000 M⁻¹ s⁻¹

Next, values leading:

IC50, IL-23 stimulated IL-17 production from mouse splenocytes [1]: 0.093 nM and 0.044 nM
IC50, IL-23 induced STAT3 phosphorylation in human DB cells (phospho-STAT3 ELISA) [2]: 0.163 nM and 0.438 nM
B1: antibody C1273 (disclosed in WO 2007/005955) (antibody, from another filing, V domains shown)
VH: DVNLVESGGGLVKPGGSLKLSCAASGFTFSSYTMSWVRQTPEKRLEWVATISSGGTYTYYPDSVKGRFTISRDNAKNTLYLQMSSLKSEDTAMFYCTRDNHAYDRGPFFDYWGQGATLTVSS
VL: DIVMSQSPSSLVVSVGEKVTMSCKSSQNLFYRSNQKNHLAWYQQKPGQSPTLLIYWTSTRESGVPDRFTGSGSGTDFTLTISRVKAEDLAVYYCQQYYSYPPTFGGGTKLEIK

Kd [5]: 0.107 nM
koff [5]: 4.07e-05 s⁻¹
kon [5]: 382000 M⁻¹ s⁻¹
B4: Antibody D (antibody, human IgG1, kappa, L234A L235A, V domains shown)
VH: QVQLVQSGAEVKKPGSSVKVSCKASGFTFTDQTIHWVRQAPGQGLEWMGYIYPRDDSPKYNENFKGKVTLTADKSTSTAYMELSSLRSEDTAVYYCAIPDRSGYAWFIYWGQGTLVTVSS
VL: DIQMTQSPSSLSASVGDRVTITCKASRDVAIAVAWYQQKPGKVPKLLLFWASTRHTGVPDRFSGSGSGTDFTLTISSLQPEDLADYYCHQYSSYPFTFGQGTKLEIKR
